# From the DeepSol protein solubility set
# Test: soluble on expression in E. coli; label from the status in PepcDB or PDB records
row,Sequence,soluble on expression in E. coli
1,MSNLSGTDKSVILLMTIGEDRAAEVFKHLSTREVQALSTAMANVRQISNKQLTDVLSEFEQEAEQFAALNINANEYLRSVLVKALGEERASSLLEDILETRDTTSGIETLNFMEPQSAADLIRDEHPQIIATILVHLKRSQAADILALFDERLRHDVMLRIATFGGVQPAALAELTEVLNGLLDGQNLKRSKMGGVRTAAEIINLMKTQQEEAVITAVREFDGELAQKIIDEMFLFENLVDVDDRSIQRLLQEVDSESLLIALKGAEPPLREKFLRNMSQRAADILRDDLANRGPVRLSQVENEQKAILLIVRRLAETGEMVIGSGEDTYV,not soluble
2,MDRFHATSADCCISYTPRSIPCSLLESYFETNSECSKPGVIFLTKKGRRFCANPSDKQVQVCMRMLKLDTRIKTRKN,soluble
3,MSLSASPELADKKGIRACPFDEPKASDEINTGFMKIFTGGDTITARALYKEPIYFKPQFKPFLLCNELPTIKSDDDGTWRRLKVIPFLSKFIKHSEATKKMKKEGLPKNHFWADTSLSEKLPDWKQGFMCLLLKYFRKYRKHGLIHPKLVTQHTVEYRKKCDVFQDFIGDYLVRVDNTKKGISVMDLYQNMREWYKSNYTGKCPNAKDLRNYVQHRMPTYNKNAEGHHHHHH,not soluble
4,MSATASVATRHDWSLAEVRALFEQPFNDLLFQAQTVHRAHFDPNRVQVSTLLSIKTGACPEDCKYCPQSGHYNTGLDKEKLMEVQKVLEAAAEAKAIGSTRFCMGAAWKHPSAKDMPYVLEMVKGVKKLGLETCMTLGRLTQEQTQALADAGLDYYNHNLDTSPEFYGNIITTRTYSERLQTLAYVREAGMKICSGGILGMGESVDDRAGLLIQLANLPEHPESVPINMLVKVKGTPLAEEKDVDPFDFIRTLAVARIMMPKSHVRLSAGREQMNEQMQALAFMAGANSIFYGEKLLTTKNPQAEKDMQLFARLGIKPEEREEHADEVHQAAIEQALVEQRESKLFYNAASA,not soluble
5,MSLQHACIFLELLKITYIHCMKRLLSLYLVLSGFLLHAQTVKELKTVASSFSEMAKIPAGSFLKHEYSFLNIQPTKQDTNLLFCIHPEATITKVTTSFYISTHEVTNAEYRQFIVWVTDSLIKNNITFDTVFYRYTTPSGKSTRISIVPDTMNRVLRDMFGYCNLNYYTHKEFISFPTTNISWHQAQAYIHWLNNRMLELLKKNHVPTTDWGKYRLPEALEWEYAAMIVEKNGDWFNQRNPDAYNIYGWLDYPLTTKEGLYKANFGLIRDLNHMVIKARWDDNYDALAPVKKYVPSLMGLYDLSGNVSEWTNTSISLDSLNKFYAGYYSNLLQTKYQHLFEELLKPAPDWKKFDAFKAESVRGRYDAQAQQYWFNEYVIRVKEMENYNRSILSRISDGMLVKGGSWDNPPVYMINTCSQVLSKNFTTPQTGFRVALTLEPAFEKLLGSYLTGEGHHHHHH,not soluble
6,MYGLVNKAIQDMISKHHGEDTWEAIKQKAGLEDIDFFVGMEAYSDDVTYHLVGAASEVLGKPAEELLIAFGEYWVTYTSEEGYGELLASAGDSLPEFMENLDNLHARVGLSFPQLRPPAFECQHTSSKSMELHYQSTRCGLAPMVLGLLHGLGKRFQTKVEVTQTAFRETGEDHDIFSIKYEDSNLYDD,soluble
7,MLLSSCQSLFSPAYQSTLRPSDNPQTVEQVQKNDPRAQMGAREHPRIVASYGGEYRDAKTERLVARIAGALTAVSENPQQSYRITILNSPAINAFALPGGYLYVTRGLLALANDASEVAAVLSHEMGHVTANHGIERQRREEAEVIASRVVAEVLSSDLAGKQALARGKLRLAAFSRQQELQADVIGVRMLGEAGYDPYASPRFLDSMAAYARFSSADPENDQSLDFLSSHPNTPQRIELARRHARAFGQEGQVGDRGRDWFLDGIDGLLYGDSPQEGYVRGQTFLHGTLGIRFDVPEGFVIDNKVEAVLATGPGDMAIRFDGVADPKQTSLANYLTSGWVAGLLPETVKETQINGLEAATARASADKWDFDVTVIRVGQQIFRFLTAVPKGNTQLDSIANVLRTSFRKMTPQEIASLKPLRVRVVTVKPGETVATMAARMMGTERKLDMFRMINAMSATATLQPGQRVKIISELEHHHHHH,not soluble
8,MAHHHHHHMSSVKITLFQGKFRLDRLLGKGGFGEVYAGVQVSTGEPVAVKLERNKGRCFLFHEARVMQDIQNSMPGRTTPGIPELKYFGQEGDFRILIMSLLGPSLEDLHAKLGRFSLKTTVMLADEMLSRLEFIHSVGYIHRDLKPDNYLLGVGRNVRHLYLIDLGLSVRYRSTNGEHREMATGKSFVGTSRYASLRTHKGFSQSRRDDMEQLSYILIYLYRGHLPWSGLRMKDREAKEKAIGEIKQKLTTAQICSKCPSQFEDLLNYSRKLEFAESPQYEMCRILIASVLDTIGPNVKHDFQYDWVNVRKRDNSPPPPPPCIVTHERRATENKINLKKGNENGEKDAATIGSKIFCFFPGLSSSASQEMVLVNEK,not soluble
9,MGSDKIHHHHHHMPEHLDFTLFQPKGRLASIVQGVWSTSVAIHSSNNIKRWLHSDACSGFLFNLSEPIQLNDLSISTGGVLLPVSKQAQTITLPPGAVVVGVRFHPAMSFAILGNIYQQATQIKKSETNILSLQTLGNQLEQAKGHYARIVVFYRWLNTMLLTIDNIPAPLMSALKALEDKKSPGELSNHVLLSQRQIERHFQKWLNMTPKYYQRISRVKNALKVLKLHPETALADLALSIGFTDQAHMTREFKYIARITPKHYAQKVIDDKSNALSIIKPKVG,not soluble
10,MGSDKIHHHHHHMKLPPLQIGDLKADIPIIQGGMGVGISRSSLASAVANCGGVGTISGVQIGFDEPDFETNTFNANIRALNKHIKKAKQESKRGIIAVNFMVAMNDYDKYVKSAVDAGADLIVSGAGLPTALPKIVEGSKVKIAPIVSSPKAASVICKMWDKHHGRIPDLIVVEGPEAGGHLGFKAEQVKGSHEELSDILTGVLTAIKPFEEKHGVKIPVVCGGGVFYGKDIAKYIKLGASGVQMATRFIATEECDANLNYKNVYVNCKEDDIKIVKSPVGMPGRAISNKFVQSNDKNITITKCYNCLKPCNPKDTPYCISKALINAVNGNVDEALLFTGAKSYKIDKIVKVKELINELISDAECEF,not soluble
11,MELKARAVGVEIIPKGKIIYYSVPNGDEYERGDLVLVLGDFGLEVGKVLIPPREVVIDEVGYELKAVIRKLTDEDLEQYRKNVEDALKAFQICKQKIKEHGLPMKLLYAKYTFDRTRLIFFFSAEGRVDFRELVRDLAKIFKTRIELRQVGVRDEMKFFGGLGLCGLPTCCSTFLREFTSVTLKHAKKQQMMINPAKISGPCRRLLCCLTYEYDFYEKELEGIPDEGSTITYEGKRYKVVNVNVFLRTVTLFSEQEGEMIKLPFDYFRKGE,soluble
12,MAKKVAAQIKLQLPAGKATPAPPVGPALGQHGVNIMEFCKRFNAETADKAGMILPVVITVYEDKSFTFIIKTPPASFLLKKAAGIEKGSSEPKRKIVGKVTRKQIEEIAKTKMPDLNANSLEAAMKIIEGTAKSMGIEVVD,soluble
13,MGAGASAEEKHSRELEKKLKEDAEKDARTVKLLLLGAGESGKSTIVKQMKIIHQDGYSLEECLEFIAIIYGNTLQSILAIVRAMTTLNIQYGDSARQDDARKLMHMADTIEEGTMPKEMSDIIQRLWKDSGIQACFDRASEYQLNDSAGYYLSDLERLVTPGYVPTEQDVLRSRVKTTGIIETQFSFKDLNFRMFDVGGQRSERKKWIHCFEGVTAIIFCVALSDYDLVLAEDEEMNRMHESMKLFDSICNNKWFTDTSIILFLNKKDLFEEKIKKSPLTICYPEYAGSNTYEEAGNYIKVQFLELNMRRDVKEIYSHMTCATDTQNVKFVFDAVTDIIIKENLKDCGLF,soluble
14,MGSDKIHHHHHHMDPRSEVLLRQAELFQGPLLIAGAPADDLLGQLPQAQAWTWHAGDQAMLESRFAGRSHYGVEAPEAAFDSAVLFLPKSRELAAYLLNALASRLAGRELYLVGEKRGGIEGAAKQLQAFGKPRKLDSARHCQLWQVTIDQAPQAKPLESLAERFELALEDGPLQVVSLPGVFSHGRLDRGTALLLKHLDGLPGGHMLDFGCGAGVLGATLKRRYPQSRVTLLDVDAFAVAASRLTLAANGLEGEVISGDGIDAAPTELSLILSNPPFHTGVHTNYQASENLLKKSAVHLRKGGEMRLVANSFLRYQPLIEGALGNCQVRDEADGFRIYQATRG,not soluble
